Assay results reported in patent publication US20120231013A1.
Values joined by “and” are separate entries in the source; they are usually repeats but may differ in a detail not shown here. Equal values may be shown once.

Tests used:
[1] = biological target: recombinant TIMP-3 (human or mouse; Table 2 does not say which); assay: binding ELISA, Assay 1
[2] = biological target: recombinant TIMP-3 (human or mouse; Table 2 does not say which); assay: AlphaScreen, biotinylated TIMP-3, Assay 2
[3] = biological target: recombinant TIMP-3 (human or mouse; Table 2 does not say which); assay: binding ELISA, Assay 3
[4] = biological target: recombinant TIMP-3 (human or mouse; Table 2 does not say which); assay: AlphaScreen, biotinylated TIMP-3, Assay 1
[5] = biological target: recombinant TIMP-3 (human or mouse; Table 2 does not say which); assay: binding ELISA, Assay 2
[6] = biological target: recombinant human TIMP-3 (human) (UniProt P35625); assay: cell-based or functional assay
Chain of recombinant human TIMP-3 (human) (P35625 24-211 limits assumed): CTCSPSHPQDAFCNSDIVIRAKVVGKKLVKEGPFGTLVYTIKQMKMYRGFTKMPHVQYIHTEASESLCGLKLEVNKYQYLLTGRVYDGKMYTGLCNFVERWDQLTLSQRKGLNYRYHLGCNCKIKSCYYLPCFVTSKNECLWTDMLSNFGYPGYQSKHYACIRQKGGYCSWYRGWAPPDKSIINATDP

MMP-13 = MMP-13 (UniProt P45452); assay: cell-based or functional assay
[7] = biological target: recombinant human TIMP-3 (human) (UniProt P35625); assay: direct ELISA, coated huTIMP-3
[8] = biological target: recombinant mouse TIMP-3 (mouse) (UniProt P39876); assay: direct ELISA, coated muTIMP-3
Chain of recombinant mouse TIMP-3 (mouse) (P39876 24-211 limits assumed): as the sequence (P35625 24-211 limits assumed) above, with T51S, D87E, Q103H, I183S counted along it

[9] = biological target: recombinant human TIMP-3 (human) (UniProt P35625); assay: indirect ELISA, huTIMP-3 captured by anti-TIMP-3 clone 277128

Chain of LRP-1 Cluster II (C II) (peptide) (chain): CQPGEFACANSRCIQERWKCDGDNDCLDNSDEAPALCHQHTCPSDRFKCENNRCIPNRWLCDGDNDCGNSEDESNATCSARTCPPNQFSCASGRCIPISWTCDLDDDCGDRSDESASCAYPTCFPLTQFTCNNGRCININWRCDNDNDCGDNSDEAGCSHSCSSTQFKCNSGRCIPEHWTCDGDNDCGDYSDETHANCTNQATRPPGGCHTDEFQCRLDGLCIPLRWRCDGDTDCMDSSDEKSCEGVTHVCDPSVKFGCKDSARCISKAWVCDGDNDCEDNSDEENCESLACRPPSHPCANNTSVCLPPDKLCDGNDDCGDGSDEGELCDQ
Chain of recombinant TIMP-3 (human or mouse; Table 2 does not say which) (P35625 24-211): as the sequence (P35625 24-211 limits assumed) above
Chain of LRP-1 peptide LA13-15 (chain): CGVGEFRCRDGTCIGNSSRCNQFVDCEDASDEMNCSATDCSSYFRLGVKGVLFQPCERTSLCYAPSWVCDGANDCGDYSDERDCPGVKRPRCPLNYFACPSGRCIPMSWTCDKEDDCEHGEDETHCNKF

| Substance | EC50 [1] | total signal (cps) [2] [cps] | total signal (cps) [4] [cps] | Direct Inhibition of MMP13 (% decrease), 1000 nM (MMP-13) [%] | further results |
| --- | --- | --- | --- | --- | --- |
| LRP-1 peptide LA4-5 | – | 2000 | 2200 | – | EC50 [5]: 2000 nM |
| LRP-1 peptide LA8-9 | – | 6000 | – | 23 | % of the inhibitory activity of TIMP-3 + peptide compared to TIMP-3 alone, 16 nM [6]: 95%; % of the inhibitory activity of TIMP-3 + peptide compared to TIMP-3 alone, 80 nM [6]: 91%; % of the inhibitory activity of TIMP-3 + peptide compared to TIMP-3 alone, 400 nM [6]: 91%; % of the inhibitory activity of TIMP-3 + peptide compared to TIMP-3 alone, 2000 nM [6]: 97%; EC50 [7]: 181 nM; EC50 [8]: 173 nM; EC50 [9]: 113 nM; EC50 [3]: 249 nM |
| LRP-1 peptide LA10 | – | 3000 | – | 49 | – |
| LRP-1 peptide LA11-13 | 5000 nM | – | 1200 | -2 | – |
| LRP-1 peptide LA16 | – | – | 2200 | – | – |
| LRP-1 peptide LA18 | – | – | 2200 | – | – |
| LRP-1 peptide LA19 | – | – | 2200 | – | – |
| LRP-1 peptide LA21-31 | 92 nM | – | 30000 | 29 | – |
| LRP-1 peptide LA29-31 | 1000 nM and 300 nM | – | 1200 | 5 | % of the inhibitory activity of TIMP-3 + peptide compared to TIMP-3 alone, 16 nM [6]: 96%; % of the inhibitory activity of TIMP-3 + peptide compared to TIMP-3 alone, 80 nM [6]: 99%; % of the inhibitory activity of TIMP-3 + peptide compared to TIMP-3 alone, 400 nM [6]: 97%; % of the inhibitory activity of TIMP-3 + peptide compared to TIMP-3 alone, 2000 nM [6]: 96% |

Continued, in another order:

| EC50 [1] | total signal (cps) [2] [cps] | total signal (cps) [4] [cps] | Direct Inhibition of MMP13 (% decrease), 1000 nM (MMP-13) [%] | Substance | further results |
| --- | --- | --- | --- | --- | --- |
| 45.5 nM | 100000 | – | – | LRP-1 Cluster II (C II) (peptide) | EC50 [3]: 32.5 nM |
| – | 2000 | 2200 | – | LRP-1 peptide LA3 | – |
| – | 2000 | 2200 | – | LRP-1 peptide LA5 | EC50 [5]: 1080 nM |
| – | 2000 | – | 49 | LRP-1 peptide LA8 | % of the inhibitory activity of TIMP-3 + peptide compared to TIMP-3 alone, 16 nM [6]: 101%; % of the inhibitory activity of TIMP-3 + peptide compared to TIMP-3 alone, 80 nM [6]: 71%; % of the inhibitory activity of TIMP-3 + peptide compared to TIMP-3 alone, 400 nM [6]: 74%; % of the inhibitory activity of TIMP-3 + peptide compared to TIMP-3 alone, 2000 nM [6]: 107%; EC50 [7]: 292 nM; EC50 [8]: 255 nM; EC50 [9]: 198 nM; EC50 [3]: 396 nM |
| – | 2000 | – | 41 | LRP-1 peptide LA9 | % of the inhibitory activity of TIMP-3 + peptide compared to TIMP-3 alone, 16 nM [6]: 104%; % of the inhibitory activity of TIMP-3 + peptide compared to TIMP-3 alone, 80 nM [6]: 104%; % of the inhibitory activity of TIMP-3 + peptide compared to TIMP-3 alone, 400 nM [6]: 105%; % of the inhibitory activity of TIMP-3 + peptide compared to TIMP-3 alone, 2000 nM [6]: 107%; EC50 [3]: 1500 nM |
| – | 2000 | – | 34 | LRP-1 peptide LA9-10 | % of the inhibitory activity of TIMP-3 + peptide compared to TIMP-3 alone, 16 nM [6]: 105%; % of the inhibitory activity of TIMP-3 + peptide compared to TIMP-3 alone, 80 nM [6]: 107%; % of the inhibitory activity of TIMP-3 + peptide compared to TIMP-3 alone, 400 nM [6]: 105%; % of the inhibitory activity of TIMP-3 + peptide compared to TIMP-3 alone, 2000 nM [6]: 107%; EC50 [3]: 3000 nM |
| – | – | 1200 | – | LRP-1 peptide LA13-15 | – |
| 300 nM | – | 3000 | – | LRP-1 peptide LA18-20 | – |
| 243 nM | – | 3000 | – | LRP-1 peptide LA21-23 | – |
| – | – | 2200 | – | LRP-1 peptide LA23 | – |
| 268 nM | 9000 | 6500 | – | LRP-1 peptide LA26-28 | – |
| – | – | 2200 | – | LRP-1 peptide LA27 | – |
